Test results published in patent US9549967B2, “Regulation of sodium channels by PLUNC proteins” (The University of North Carolina at Chapel Hill, priority 2009, dated 2017).

Target: T1, αR205,231Kβ, γR138K ENaC mutant (Rattus norvegicus, UniProt P37089+P37090+P37091, R138K/R205K/R231K)
T1 construct: expressed in transfected cells; host or cells: Xenopus laevis oocytes
T1 sequence (P37089 1-698 R205K/R231K): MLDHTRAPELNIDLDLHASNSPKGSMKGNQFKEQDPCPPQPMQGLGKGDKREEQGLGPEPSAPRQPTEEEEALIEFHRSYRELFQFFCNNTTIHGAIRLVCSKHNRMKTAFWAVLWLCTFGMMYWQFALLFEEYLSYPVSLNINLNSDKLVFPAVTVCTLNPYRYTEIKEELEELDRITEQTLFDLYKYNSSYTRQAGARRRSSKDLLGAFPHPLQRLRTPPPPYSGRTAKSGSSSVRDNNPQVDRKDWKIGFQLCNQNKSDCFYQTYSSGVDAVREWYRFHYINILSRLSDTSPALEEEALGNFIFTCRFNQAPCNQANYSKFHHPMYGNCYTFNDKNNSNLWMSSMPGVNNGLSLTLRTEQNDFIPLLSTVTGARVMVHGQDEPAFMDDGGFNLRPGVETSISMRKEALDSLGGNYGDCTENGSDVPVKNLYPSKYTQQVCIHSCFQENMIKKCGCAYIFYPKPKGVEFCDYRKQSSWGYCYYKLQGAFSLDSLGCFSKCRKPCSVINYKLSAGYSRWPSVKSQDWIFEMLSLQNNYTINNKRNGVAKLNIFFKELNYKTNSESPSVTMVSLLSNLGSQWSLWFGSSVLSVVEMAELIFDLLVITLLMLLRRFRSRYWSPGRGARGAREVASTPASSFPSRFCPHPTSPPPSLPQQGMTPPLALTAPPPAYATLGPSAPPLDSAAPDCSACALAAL
T1 sequence (P37090 1-638): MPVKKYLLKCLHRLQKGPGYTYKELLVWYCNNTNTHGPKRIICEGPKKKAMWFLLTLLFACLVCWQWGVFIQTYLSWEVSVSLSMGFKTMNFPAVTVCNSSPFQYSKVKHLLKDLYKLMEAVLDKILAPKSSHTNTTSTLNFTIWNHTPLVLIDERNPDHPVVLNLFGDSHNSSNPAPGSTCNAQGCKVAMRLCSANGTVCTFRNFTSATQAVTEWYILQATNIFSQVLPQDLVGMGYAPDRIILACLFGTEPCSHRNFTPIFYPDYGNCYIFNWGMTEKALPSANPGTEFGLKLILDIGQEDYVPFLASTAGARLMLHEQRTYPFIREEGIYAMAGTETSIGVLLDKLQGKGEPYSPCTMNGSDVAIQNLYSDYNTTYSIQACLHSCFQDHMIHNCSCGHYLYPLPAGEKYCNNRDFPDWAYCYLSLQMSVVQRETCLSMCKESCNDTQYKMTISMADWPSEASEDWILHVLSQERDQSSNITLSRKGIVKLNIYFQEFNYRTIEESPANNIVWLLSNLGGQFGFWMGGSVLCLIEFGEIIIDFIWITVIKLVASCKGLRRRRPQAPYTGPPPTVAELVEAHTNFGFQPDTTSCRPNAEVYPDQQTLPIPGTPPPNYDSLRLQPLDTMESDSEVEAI
T1 sequence (P37091 1-650 R138K): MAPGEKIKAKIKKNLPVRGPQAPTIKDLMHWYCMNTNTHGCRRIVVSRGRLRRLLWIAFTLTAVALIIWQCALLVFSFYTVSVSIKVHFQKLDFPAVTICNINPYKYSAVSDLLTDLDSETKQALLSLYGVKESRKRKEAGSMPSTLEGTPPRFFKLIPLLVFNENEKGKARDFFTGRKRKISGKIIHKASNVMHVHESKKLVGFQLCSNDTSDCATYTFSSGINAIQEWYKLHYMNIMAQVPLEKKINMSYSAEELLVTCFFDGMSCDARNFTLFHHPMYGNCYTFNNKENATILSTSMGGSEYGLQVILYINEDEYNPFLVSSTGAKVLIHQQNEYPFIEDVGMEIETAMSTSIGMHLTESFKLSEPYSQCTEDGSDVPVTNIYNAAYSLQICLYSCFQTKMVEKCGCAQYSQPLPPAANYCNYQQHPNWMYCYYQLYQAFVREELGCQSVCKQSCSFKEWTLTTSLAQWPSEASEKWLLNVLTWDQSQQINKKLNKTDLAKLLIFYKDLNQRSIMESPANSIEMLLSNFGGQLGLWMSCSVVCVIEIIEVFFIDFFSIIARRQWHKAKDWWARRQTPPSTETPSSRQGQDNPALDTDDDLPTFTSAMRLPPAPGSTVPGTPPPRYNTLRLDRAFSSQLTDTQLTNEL
Test: Oocyte current of furin-insensitive ENaC mutant
Type: cell-based
Details: co-expression in oocytes
Experimental: Oocyte studies. Xenopus laevis oocytes were harvested and injected as described (Donaldson, et al., J. Biol. Chem. 277:8338 (2002)). Defolliculated healthy stage V-VI oocytes were injected with 0.3 ng of cRNA of each ENaC subunit. Injected oocytes were kept in modified Barth's saline (in mM: 88 NaCl, 1 KCl, 2.4 NaHCO3, 0.3 Ca(NO3)2, 0.41 CaCl2, 0.82 MgSO4, and 15 HEPES, adjusted to pH 7.35 with Tris). Oocytes were studied 24 hr after injection using the two electrode voltage clamp technique as previously described (Donaldson, et al., J. Biol. Chem. 277:8338 (2002)). Oocytes were clamped at a holding potential of […]. The change in amiloride-sensitive whole cell current as an indicator of ENaC activity was determined by subtracting the corresponding current value measured in the presence of 10 μM amiloride from that measured before the application of amiloride.

B1: SPLUNC1: human SPLUNC1, 256 amino acid secreted PLUNC protein (SEQ ID NO:1); rSPLUNC1 = V5/6His-tagged protein purified from HEK293 media (protein, listed as Homo sapiens)
chain: MFQTGGLIVFYGLLAQTMAQFGGLPVPLDQTLPLNVNPALPLSPTGLAGSLTNALSNGLLSGGLLGILENLPLLDILKPGGGTSGGLLGGLLGKVTSVIPGLNNIIDIKVTDPQLLELGLVQSPDGHRLYVTIPLGIKLQVNTPLVGASLLRLAVKLDITAEILAVRDKQERIHLVLGDCTHSPGSLQISLLDGLGPLPIQGLLDSLTGILNKVLPELVQGNVCPLVNEVLRGLDITLVHDIVNMLIHGLQFVIKV
modifications: V5/6His tag
notes: rSPLUNC1 = V5/6His-tagged protein purified from HEK293 media
- inhibition of furin-insensitive ENaC mutant: inhibited
